IC50 and Kd data for 20 sequences are collected here from the Immune Epitope Database (IEDB).

In general, pIC50 refers to −log10 of the IC50, conventionally taken in molar units. Lower therefore signals a high IC50. As usually defined, the pKd is the negative decadic logarithm of the Kd, by convention in mol/L.

In test [1] the target is HLA-A*24:02. The test is described as follows: IEDB peptide-MHC binding, purified MHC/competitive/fluorescence; ≥ and ≤ were set here for values at or beyond the usual limits of such assays. The note with it: source organism: Zaire ebolavirus.
Test [2] has as its target HLA-B*15:01. The description is as above.
Test [3] has as its target HLA-A*02:01. The test is described as follows: IEDB peptide-MHC binding, purified MHC/competitive/radioactivity; filed as Kd, often an IC50 or EC50 that approximates it; ≥ and ≤ were set here for values at or beyond the usual limits of such assays.
The next test deals with HLA-A*02:06. The description is as above.
The next test addresses HLA-A*02:17. Described as above.
For the next test, the target named is HLA-B*35:01. Described as above.
The target in test [4] is HLA-B*51:01. The description is as above. The note with it: source organism: Dengue virus 4 Philippines/H241/1956.
In another test the target is HLA-B*53:01. The test is described as above. The note with it: source organism: Dengue virus 4 Philippines/H241/1956.
Test [5] addresses HLA-A*02:03. Briefly: IEDB peptide-MHC binding, purified MHC/direct/fluorescence; filed as Kd, often an IC50 or EC50 that approximates it; ≥ and ≤ were set here for values at or beyond the usual limits of such assays. The note with it: source organism: Araucaria virus.
The target in a further test is HLA-A*02:12. The description is as above.
The next test deals with HLA-A*02:19. The description is as above. Particulars: source organism: Araucaria virus.
The next test deals with HLA-A*03:01. The description is as above.
A further test concerns the target HLA-A*24:03. Described as above.
For test [6], the target named is HLA-A*68:02. The description is as above. The note with it: source organism: Araucaria virus.
The target of the next test is HLA-A*26:01. The test is described as follows: IEDB peptide-MHC binding, purified MHC/competitive/fluorescence; filed as Kd, often an IC50 or EC50 that approximates it; ≥ and ≤ were set here for values at or beyond the usual limits of such assays.
In another test the target is HLA-A*69:01. The description is as above.
In another test the target is HLA-B*15:17. Described as above.
The target in another test is HLA-B*18:01. The test is described as above.
In the next test the target is HLA-B*27:03. Described as above.
For the next test, the target named is HLA-B*39:01. Described as above.
The target of a further test is HLA-B*46:01. The description is as above.
The target of test [7] is HLA-B*51:01. Described as above.
Test [8] concerns the target HLA-B*57:01. Described as above.
For test [9], the target named is HLA-B*57:01. The test is described as follows: IEDB peptide-MHC binding, purified MHC/competitive/radioactivity; filed as Kd, often an IC50 or EC50 that approximates it; ≥ and ≤ were set here for values at or beyond the usual limits of such assays.
The target of test [10] is HLA-A*02:03. The description is as above.
The target in the next test is HLA-A*32:01. Described as above. The note with it: source organism: Dengue virus 1 Brazil/97-11/1997.
For test [11], the target named is HLA-A*68:02. Described as above. The note with it: source organism: Dengue virus 1 Brazil/97-11/1997.
Another test addresses HLA-B*08:01. The test is described as above. The note with it: source organism: Dengue virus 1 Brazil/97-11/1997.
Another test deals with HLA-A*23:01. Described as above. The note with it: source organism: Dengue virus 1 Brazil/97-11/1997.
Test [12] deals with HLA-A*24:02. Described as above. Particulars: source organism: Dengue virus 1 Brazil/97-11/1997.
The target of test [13] is HLA-B*15:01. Described as above. The note with it: source organism: Dengue virus 1 Brazil/97-11/1997.
In a further test the target is HLA-A*01:01. Briefly: IEDB peptide-MHC binding, purified MHC/direct/fluorescence; filed as Kd, often an IC50 or EC50 that approximates it; ≥ and ≤ were set here for values at or beyond the usual limits of such assays. The note with it: source organism: Reston ebolavirus - Reston.
The target of test [14] is HLA-A*02:01. The description is as above.
The target in test [15] is HLA-A*02:01. The test is described as follows: IEDB peptide-MHC binding, purified MHC/competitive/fluorescence; ≥ and ≤ were set here for values at or beyond the usual limits of such assays. Particulars: source organism: Vaccinia virus.
Another test deals with HLA-A*11:01. The description is as above. Particulars: source organism: Zaire ebolavirus.
The target in a further test is HLA-A*29:02. Briefly: IEDB peptide-MHC binding, purified MHC/direct/fluorescence; filed as Kd, often an IC50 or EC50 that approximates it; ≥ and ≤ were set here for values at or beyond the usual limits of such assays. The note with it: source organism: Zaire ebolavirus.
Test [16] concerns the target HLA-B*15:01. The test is described as follows: IEDB peptide-MHC binding, purified MHC/competitive/fluorescence; filed as Kd, often an IC50 or EC50 that approximates it; ≥ and ≤ were set here for values at or beyond the usual limits of such assays. The note with it: source organism: Zaire ebolavirus.
Setting [17] is: source organism: Zaire ebolavirus.
Where [18] appears, read: source organism: Dengue virus 4 Philippines/H241/1956.
[19] abbreviates: source organism: Araucaria virus.
Setting [20] is: source organism: Hantavirus HPR/02-73.
Setting [21] is: source organism: Dengue virus 2 Jamaica/1409/1983.
The mark [22] stands for this setting: source organism: Dengue virus 1 Brazil/97-11/1997.
Where [23] appears, read: source organism: Dengue virus 1 Singapore/S275/1990.
Where [24] appears, read: source organism: Dengue virus 3 China/80-2/1980.

pIC50, pKd: −log10 of the molar value.

AFHKEGAFF: the pIC50 with HLA-A*24:02 [1] was 7.70; with HLA-B*15:01 [2] (setting [17]), 5.73.

For the sequence FSMGLLCLTL, the negative logarithm of the Kd (pKd) is 5.05 with HLA-A*02:01 [3] (setting [18]); 8.07 with HLA-A*02:06 (setting [18]); 7.08 in the test with HLA-A*02:17 (setting [18]); 5.51 with HLA-B*35:01 (setting [18]); at most 4.16 with HLA-B*51:01 [4]; 6.48 with HLA-B*53:01.

For GFAIPIILK, the negative logarithm of the Kd (pKd) in the test with HLA-A*02:03 [5] is at most 4.70; with HLA-A*02:12 (setting [19]), at most 4.70; in the test with HLA-A*02:19 it was at most 4.70; with HLA-A*03:01 (source organism: Juquitiba virus), 5.22; with HLA-A*24:03 (setting [19]), at most 4.70; with HLA-A*68:02 [6] it was at most 4.70. In addition, the negative logarithm of the Kd (pKd) with HLA-A*26:01 (setting [20]), with HLA-A*69:01 (setting [20]), with HLA-B*15:17 (setting [20]), with HLA-B*18:01 (setting [20]), with HLA-B*27:03 (setting [20]) and with HLA-B*39:01 (setting [20]) was at most 4.70 in each case. The pKd with HLA-B*46:01 (setting [20]), in the test with HLA-B*51:01 [7] (setting [20]) and with HLA-B*57:01 [8] (setting [20]) was at most 4.70 throughout.

GTSLLFLNDM: the pKd with HLA-B*57:01 [9] (source organism: Dengue virus 4 Dominica/814669/1981) was at most 4.66.

IILEFFLIVL: the negative-log Kd (pKd) with HLA-A*02:01 [3] (setting [21]) is 6.96; with HLA-A*02:06 (setting [21]) it was 6.49; with HLA-A*02:17 (setting [21]) it was 6.10.

On to IILEFFLMVL, for which the pKd with HLA-A*02:01 [3] (setting [18]) is 7.02; in the test with HLA-A*02:06 (setting [22]), 6.48; with HLA-A*02:17 (setting [18]) it was 5.85.

Take IMAAILAYTI: the results for the pKd with HLA-A*02:01 [3] (setting [21]) and with HLA-A*02:17 (setting [21]) were 7.51 and 5.80, respectively.

As to KTKLNDWDF, in the test with HLA-B*57:01 [9] (source organism: Dengue virus 3 Martinique/1243/1999), the negative logarithm of the Kd (pKd) is 7.29.

Take LLLTLLATV: the pKd in the test with HLA-A*02:03 [10] (setting [21]) was 8.81; in the test with HLA-A*02:06 (setting [21]) it was 9.00; with HLA-A*02:17 (setting [21]), 6.80.

MLLMLLPTA: the negative-log Kd (pKd) with HLA-A*02:01 [3] (setting [23]) was 9.32; in the test with HLA-A*02:06 (setting [22]), 8.97; with HLA-A*02:17 (setting [23]) it was 6.79.

Consider MLMTGTLAV, for which the pKd with HLA-A*02:01 [3] (setting [23]) was 7.71; in the test with HLA-A*02:03 [10] (setting [22]), 9.33; with HLA-A*02:06 (setting [22]), 8.01; in the test with HLA-A*02:17 (setting [23]), 6.12; with HLA-A*32:01, 6.30; with HLA-A*68:02 [11] it was 8.01. Further, the pKd with HLA-B*08:01 was 7.65.

Consider MLMTGTLAVF, for which the negative-log Kd (pKd) with HLA-A*02:01 [3] (setting [23]) was 7.12; with HLA-A*02:17 (setting [23]), 7.49; in the test with HLA-A*23:01, 7.26; with HLA-A*24:02 [12] it was 6.53; in the test with HLA-B*15:01 [13] it was 8.91; with HLA-B*35:01 (setting [22]), 6.47.

For the sequence MVAKYDLLV, the pKd with HLA-A*01:01 was at most 4.70; with HLA-A*02:01 [14] (source organism: Reston ebolavirus - Reston), 7.85; with HLA-A*02:12 (setting [17]), at most 4.70; with HLA-A*03:01 (setting [17]) it was at most 4.70; with HLA-A*26:01 (setting [17]) it was at most 4.70; with HLA-B*18:01 (setting [17]), at most 4.70. Also, the pKd with HLA-B*27:03 (setting [17]), in the test with HLA-B*39:01 (setting [17]), with HLA-B*46:01 (setting [17]), in the test with HLA-B*51:01 [7] (setting [17]) and with HLA-B*57:01 [8] (setting [17]) was at most 4.70 each time.

As to PMMIQTRAA, the results for the pIC50 in the test with HLA-A*02:01 [15] and with HLA-B*15:01 [2] (source organism: Vaccinia virus) were 4.74 and at most 3.53, respectively.

For QLANAIFKL, the values for the pKd with HLA-A*02:01 [3] (setting [24]) and in the test with HLA-A*02:17 (setting [24]) were 8.39 and 7.61, respectively.

As to SQKGQHIEG, the pIC50 is at most 3.73 in the test with HLA-A*11:01 and 4.33 with HLA-B*15:01 [2] (setting [17]).

In the case of VLLLVTHYA, the pKd with HLA-A*02:01 [3] (setting [24]) was 8.16; with HLA-A*02:17 (setting [24]), 5.17.

In the case of VLSDLCNFL, the pKd was 8.30 with HLA-A*02:01 [14] (source organism: Ebola virus - Gabon (1994-1997)); at most 4.70 with HLA-A*03:01 (setting [17]); at most 4.70 with HLA-A*24:03 (setting [17]); at most 4.70 in the test with HLA-A*29:02; at most 4.70 with HLA-A*26:01 (setting [17]); at most 4.70 with HLA-A*69:01 (setting [17]). The pKd in the test with HLA-B*15:01 [16], with HLA-B*15:17 (setting [17]), with HLA-B*18:01 (setting [17]), with HLA-B*27:03 (setting [17]), with HLA-B*39:01 (setting [17]) and with HLA-B*46:01 (setting [17]) was at most 4.70 each time. Besides, the pKd with HLA-B*51:01 [7] (setting [17]) and with HLA-B*57:01 [8] (setting [17]) was at most 4.70 throughout.

For the sequence VSAGESSIL, the pIC50 in the test with HLA-B*15:01 [2] (source organism: Vaccinia virus Copenhagen) is at most 4.06.

On to YMWLGARFL, for which the negative logarithm of the Kd (pKd) with HLA-A*02:01 [3] (setting [21]) was 8.17; with HLA-A*02:17 (setting [21]), 7.03.
